Consider nine molecules from patent US20200040059A1.

The target in experiment [1] is T1, CD96 (UniProt P40200).
T1 sequence (looked up): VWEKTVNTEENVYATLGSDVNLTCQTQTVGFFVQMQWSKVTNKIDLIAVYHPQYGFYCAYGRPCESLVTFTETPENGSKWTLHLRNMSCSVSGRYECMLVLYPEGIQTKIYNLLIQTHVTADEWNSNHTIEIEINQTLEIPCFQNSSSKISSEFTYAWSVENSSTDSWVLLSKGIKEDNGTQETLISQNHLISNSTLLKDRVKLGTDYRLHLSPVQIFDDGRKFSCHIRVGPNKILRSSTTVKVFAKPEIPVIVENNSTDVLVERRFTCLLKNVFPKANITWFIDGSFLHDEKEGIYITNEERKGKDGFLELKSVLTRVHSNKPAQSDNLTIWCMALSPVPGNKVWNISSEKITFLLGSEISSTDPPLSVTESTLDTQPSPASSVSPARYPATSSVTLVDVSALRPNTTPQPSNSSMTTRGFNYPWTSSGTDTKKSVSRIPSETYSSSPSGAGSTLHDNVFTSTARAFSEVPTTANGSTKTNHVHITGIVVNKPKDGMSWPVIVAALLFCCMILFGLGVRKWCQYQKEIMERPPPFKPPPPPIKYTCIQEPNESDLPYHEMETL
Nature of the experiment: flow cytometry, cells. For orientation: Flow cytometry measures light scatter and fluorescence of single cells or particles in a stream.

In experiment [2] the target is T2, CD226 (human) (UniProt Q15762).
T2 sequence: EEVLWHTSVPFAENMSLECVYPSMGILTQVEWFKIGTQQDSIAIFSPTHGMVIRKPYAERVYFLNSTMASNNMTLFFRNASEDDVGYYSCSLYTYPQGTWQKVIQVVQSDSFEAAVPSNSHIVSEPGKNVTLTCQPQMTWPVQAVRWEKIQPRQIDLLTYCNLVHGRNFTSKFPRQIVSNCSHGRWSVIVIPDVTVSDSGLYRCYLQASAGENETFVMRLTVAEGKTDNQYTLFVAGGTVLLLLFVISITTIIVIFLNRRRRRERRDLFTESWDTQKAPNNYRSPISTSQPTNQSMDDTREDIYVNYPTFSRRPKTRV
Nature of the experiment: flow cytometry, transfected cells.

In experiment [3] the target is T1, CD96. Nature of the experiment: flow cytometry, CD96-expressing cells.
Experiment [4] has as its target T2, CD226 (human). As to the kind of experiment: flow cytometry, CD226-expressing cells.
Experiment [5] addresses T3, TIGIT (human) (UniProt Q495A1).
T3 sequence: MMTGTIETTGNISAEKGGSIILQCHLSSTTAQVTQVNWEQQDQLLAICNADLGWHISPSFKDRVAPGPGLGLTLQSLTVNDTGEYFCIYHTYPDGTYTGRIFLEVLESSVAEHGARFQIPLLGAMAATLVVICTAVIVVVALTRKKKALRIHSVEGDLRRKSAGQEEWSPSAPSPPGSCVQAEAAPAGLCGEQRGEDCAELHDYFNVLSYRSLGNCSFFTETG
Nature of the experiment: flow cytometry, TIGIT-expressing cells.

The target of experiment [6] is CD112R, expressed on transfected cells (human) (UniProt Q6DKI7). As to the kind of experiment: flow cytometry on transfected cells.
Experiment [7] concerns the target CD96, expressed on transfected cells (UniProt P40200). As to the kind of experiment: flow cytometry on transfected cells.
The target in experiment [8] is T4, human TIGIT, full length, expressed on transfected cells (human) (UniProt Q495A1).
T4 sequence: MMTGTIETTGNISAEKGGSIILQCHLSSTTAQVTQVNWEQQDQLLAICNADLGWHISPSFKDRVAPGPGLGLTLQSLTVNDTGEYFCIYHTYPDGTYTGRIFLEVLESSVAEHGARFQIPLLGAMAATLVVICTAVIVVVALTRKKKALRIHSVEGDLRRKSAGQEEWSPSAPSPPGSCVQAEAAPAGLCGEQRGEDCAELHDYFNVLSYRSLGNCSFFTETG
As to the kind of experiment: flow cytometry on transfected cells.

The next experiment concerns the target CD112R (human) (UniProt Q6DKI7). Nature of the experiment: flow cytometry, cells expressing target, 25 nM.
Experiment [9] has as its target T2, CD226 (human). Nature of the experiment: flow cytometry, cells expressing target, 25 nM.
The target in experiment [10] is T1, CD96. As to the kind of experiment: flow cytometry, cells expressing target, 25 nM.
Experiment [11] addresses T3, TIGIT (human). Nature of the experiment: flow cytometry, cells expressing target, 25 nM.
The target in experiment [12] is human CD28, full-length, expressed on transfected Expi293 cells (human) (UniProt P10747). As to the kind of experiment: flow cytometry on CD28-expressing Expi293 cells.
Experiment [13] addresses T5, CD112R (full length, expressed on transfected cells) (human), Q6DKI7.
T5 chain: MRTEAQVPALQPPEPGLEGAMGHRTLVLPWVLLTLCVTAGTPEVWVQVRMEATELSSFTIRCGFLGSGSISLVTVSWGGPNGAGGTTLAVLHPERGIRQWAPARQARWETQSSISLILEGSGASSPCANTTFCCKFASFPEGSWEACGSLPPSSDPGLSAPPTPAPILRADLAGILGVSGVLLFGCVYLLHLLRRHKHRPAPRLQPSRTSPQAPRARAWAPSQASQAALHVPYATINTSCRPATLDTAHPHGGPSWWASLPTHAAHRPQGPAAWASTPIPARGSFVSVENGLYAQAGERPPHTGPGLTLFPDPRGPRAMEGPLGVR
As to the kind of experiment: flow cytometry, 20 nM; ratio to WT CD112 IgV-Fc. The note with it: remark: other sources report otherwise.

Experiment [14] addresses T5, CD112R (full length, expressed on …). As to the kind of experiment: flow cytometry on cells expressing the target, 20 nM. The note with it: remark: other sources report otherwise.

B1: CD155 P18T, Q60K IgV-Fc (Fc fusion, not shown: a dimerising Fc or GST; small tags and cut ends)
chain: PGTGDVVVQAPTQVTGFLGDSVTLPCYLQVPNMEVTHVSQLTWARHGESGSMAVFHKTQGPSYSESKRLEFVAARLGAELRNASLRMFGLRVEDEGNYTCLFVTFPQGSRSVDIWL
Take B1: the MFI was 154000 with CD96 [1] and 238000 with CD226 (human) [2].

B2: CD155 variant IgV-Fc V11A, P18S, L79P, F91S, L104M, G111R (Fc fusion, not shown: a dimerising Fc or GST; small tags and cut ends)
chain: PGTGDVVAQAPTQVSGFLGDSVTLPCYLQVPNMEVTHVSQLTWARHGESGSMAVFHQTQGPSYSESKRLEFVAARPGAELRNASLRMSGLRVEDEGNYTCMFVTFPQRSRSVDIWL
As to B2, the results for the MFI at 11.1 nM in the experiment with CD96 [3] and in the experiment with CD226 (human) [4] were 923 MFI and 974 MFI, respectively.

B3: CD155 variant IgV-Fc P18S, S42G, T45V, F58L, S67W, L104N (Fc fusion, not shown: a dimerising Fc or GST; large carriers; small tags and cut ends)
chain: PGTGDVVVQAPTQVSGFLGDSVTLPCYLQVPNMEVTHVGQLVWARHGESGSMAVLHQTQGPSYWESKRLEFVAARLGAELRNASLRMFGLRVEDEGNYTCNFVTFPQGSRSVDIWL
In the case of B3, the MFI at 100 nM with TIGIT (human) [5] turned out to be 14100 MFI.

B4: CD155 variant IgV-Fc V9L, P18S, Q60R, V75L, L79P, R89K, F91S, L104E, G111R (Fc fusion, not shown: a dimerising Fc or GST; small tags and cut ends)
chain: PGTGDLVVQAPTQVSGFLGDSVTLPCYLQVPNMEVTHVSQLTWARHGESGSMAVFHRTQGPSYSESKRLEFLAARPGAELRNASLKMSGLRVEDEGNYTCEFVTFPQRSRSVDIWL
Regarding B4, the MFI at 11.1 nM stood at 959 MFI in the experiment with CD96 [3] and 986 MFI with CD226 (human) [4].

B5: CD155 variant T45Q, S52R, L104E IgV-Fc (Fc fusion, not shown: a dimerising Fc or GST; small tags and cut ends)
chain: PGTGDVVVQAPTQVPGFLGDSVTLPCYLQVPNMEVTHVSQLQWARHGERGSMAVFHQTQGPSYSESKRLEFVAARLGAELRNASLRMFGLRVEDEGNYTCEFVTFPQGSRSVDIWL
With B5, the MFI at 100 nM in experiment [6] was 2620; in [7], 3750; in experiment [8], 122000.

B6: CD155 variant IgV-Fc V9L, P18F, T45A, S65A, S67V, R78K, L79V, F91S, T107M, S114T (Fc fusion, not shown: a dimerising Fc or GST; small tags and cut ends)
chain: PGTGDLVVQAPTQVFGFLGDSVTLPCYLQVPNMEVTHVSQLAWARHGESGSMAVFHQTQGPAYVESKRLEFVAAKVGAELRNASLRMSGLRVEDEGNYTCLFVMFPQGSRTVDIWL
As to B6, the MFI at 25 nM was 812 MFI with CD112R (human), 154000 MFI with CD226 (human) [9], 85600 MFI with CD96 [10] and 130000 MFI in the experiment with TIGIT (human) [11].

B7: CD155 variant IgV-Fc T15S, P18S, Y30H, Q32L, Q62R, L79P, F91S, T107M (Fc fusion, not shown: a dimerising Fc or GST; small tags and cut ends)
chain: PGTGDVVVQAPSQVSGFLGDSVTLPCHLLVPNMEVTHVSQLTWARHGESGSMAVFHQTRGPSYSESKRLEFVAARPGAELRNASLRMSGLRVEDEGNYTCLFVMFPQGSRSVDIWL
Consider B7, for which the MFI at 25 nM is 1060 MFI with CD112R (human), 2090 MFI in the experiment with CD226 (human) [9] and 16200 MFI in the experiment with TIGIT (human) [11].

B8: ICOSL variant F120S/Y152H/N201S ECD-Fc fusion (Fc fusion, not shown: a dimerising Fc or GST; small tags and cut ends)
chain: DTQEKEVRAMVGSDVELSCACPEGSRFDLNDVYVYWQTSESKTVVTYHIPQNSSLENVDSRYRNRALMSPAGMLRGDFSLRLFNVTPQDEQKFHCLVLSQSLGFQEVLSVEVTLHVAANSSVPVVSAPHSPSQDELTFTCTSINGYPRPNVHWINKTDNSLLDQALQNDTVFLNMRGLYDVVSVLRIARTPSVNIGCCIESVLLQQNLTVGSQTGNDIGERDKITENPVSTGEKNAAT
On to B8, for which the MFI in [12] came out at 16 MFI.

B9: WT CD112-Fc ECD, Q92692 32-360 (Fc fusion, not shown: a dimerising Fc or GST; small tags and cut ends)
chain: QDVRVQVLPEVRGQLGGTVELPCHLLPPVPGLYISLVTWQRPDAPANHQNVAAFHPKMGPSFPSPKPGSERLSFVSAKQSTGQDTEAELQDATLALHGLTVEDEGNYTCEFATFPKGSVRGMTWLRVIAKPKNQAEAQKVTFSQDPTTVALCISKEGRPPARISWLSSLDWEAKETQVSGTLAGTVTVTSRFTLVPSGRADGVTVTCKVEHESFEEPALIPVTLSVRYPPEVSISGYDDNWYLGRTDATLSCDVRSNPEPTGYDWSTTSGTFPTSAVAQGSQLVIHAVDSLFNTTFVCTVTNAVGMGRAEQVIFVRETPNTAGAGATGG
For the molecule B9, in experiment [13], the Fold Increase to WT IgV amounted to 0.75 fold. The molecule also gave an MFI at 20 nM in [14] of 1250.
